Legend:
purified protein = substrate: NC(=O)c1ncn([C@@H]2O[C@H](COP(=O)(O)O)[C@@H](O)[C@H]2O)c1NC=O; assay: purified protein; assay type: biochemical, Cryptococcus neoformans; conditions: IMP cyclohydrolase activity, 100 mM Tris-Cl pH 7.5, 37 °C
SEC-MALS = target: the molecule itself; assay: SEC-MALS

B1: Cryptococcus neoformans AICAR transformylase/IMP cyclohydrolase (ATIC) (enzyme, UniProt J9VJP1 1-605, looked up)
chain: MSSEAPIALLSVYDKTGLLPFAKSLKELGFRLLGSGGTAKMIREAGMEIEDVSNITKAPEMLGGRVKTLHPAVHGGILSRDIPSDLADLATNKISPITLVVCNLYPFVLQTAKPDCTLAGAIEEIDIGGVTLLRAAAKNHGRVSIISSPSDYETIVAELRAKGEVSAETRRGLAIKAFEDTKSYDEAISDYFRKVYATPGVEEEMKAGAGVGYQRLGLRYGANPHQKPAQAFVEQGEMPIKVLSGSPGYINLLDALNSWALVKELAAGLDLPAAASFKHVSPAGAAVGLPLDERAAKVFGVEDLKELSPLACAYARARGADRMSSFGDFIALSHTVDTPTAKIISREVSDGVIAPGYEPEALEILSKKKGGKYCVLQMDPTYVPPEIETRQVYGISLQQKRNDCKIDESLFKNVVTANKDLPKSAVTDLVVATLALKYTQSNSVCYALNGTVIGLGAGQQSRIHCTRLAGDKADNWWLRHHPRVLELPFKKGTKRADKANAIDLFVTGQAFEAEGGERAQWESLFETVPEPLTKEEREKHMKELTGVACASDAFFPFPDNVHRAKRSGATYLAAPSGSIMDKECIKAADESNLVFCHTDLRLFHH
Km (purified protein): 30 ± 1 µM | Vmax (purified protein): 8.6 µmol/min/mg | kcat (purified protein): 7.7 ± 0.1 s⁻¹ | stoichiometry N (SEC-MALS): 2

Reference: publication PMC9525906 (The Journal of Biological Chemistry, 2022)
